The target of one test is endogenous eIF4E (human (endogenous in HEK-293 cells), UniProt P06730 2-217). Kind of test: anti-Flag co-IP from HEK-293 lysate, Western blot with anti-eIF4E (FIG. 6A). Background: Immunoblotting shows a protein as a band on a membrane.
Another test concerns the target endogenous eIF4G (human (endogenous in HEK-293 cells), UniProt Q04637 1-1599). Briefly: anti-Flag co-IP from HEK-293 lysate, Western blot with anti-eIF4G (FIG. 6A).
For the next test, the target named is T1, BCR-ABL.
T1 construct: Overexpressed in HEK-293 cells; also called BCR-ABL oncoprotein; BCR-ABL fusion protein

Sequence of endogenous eIF4G (Q04637 whole entry): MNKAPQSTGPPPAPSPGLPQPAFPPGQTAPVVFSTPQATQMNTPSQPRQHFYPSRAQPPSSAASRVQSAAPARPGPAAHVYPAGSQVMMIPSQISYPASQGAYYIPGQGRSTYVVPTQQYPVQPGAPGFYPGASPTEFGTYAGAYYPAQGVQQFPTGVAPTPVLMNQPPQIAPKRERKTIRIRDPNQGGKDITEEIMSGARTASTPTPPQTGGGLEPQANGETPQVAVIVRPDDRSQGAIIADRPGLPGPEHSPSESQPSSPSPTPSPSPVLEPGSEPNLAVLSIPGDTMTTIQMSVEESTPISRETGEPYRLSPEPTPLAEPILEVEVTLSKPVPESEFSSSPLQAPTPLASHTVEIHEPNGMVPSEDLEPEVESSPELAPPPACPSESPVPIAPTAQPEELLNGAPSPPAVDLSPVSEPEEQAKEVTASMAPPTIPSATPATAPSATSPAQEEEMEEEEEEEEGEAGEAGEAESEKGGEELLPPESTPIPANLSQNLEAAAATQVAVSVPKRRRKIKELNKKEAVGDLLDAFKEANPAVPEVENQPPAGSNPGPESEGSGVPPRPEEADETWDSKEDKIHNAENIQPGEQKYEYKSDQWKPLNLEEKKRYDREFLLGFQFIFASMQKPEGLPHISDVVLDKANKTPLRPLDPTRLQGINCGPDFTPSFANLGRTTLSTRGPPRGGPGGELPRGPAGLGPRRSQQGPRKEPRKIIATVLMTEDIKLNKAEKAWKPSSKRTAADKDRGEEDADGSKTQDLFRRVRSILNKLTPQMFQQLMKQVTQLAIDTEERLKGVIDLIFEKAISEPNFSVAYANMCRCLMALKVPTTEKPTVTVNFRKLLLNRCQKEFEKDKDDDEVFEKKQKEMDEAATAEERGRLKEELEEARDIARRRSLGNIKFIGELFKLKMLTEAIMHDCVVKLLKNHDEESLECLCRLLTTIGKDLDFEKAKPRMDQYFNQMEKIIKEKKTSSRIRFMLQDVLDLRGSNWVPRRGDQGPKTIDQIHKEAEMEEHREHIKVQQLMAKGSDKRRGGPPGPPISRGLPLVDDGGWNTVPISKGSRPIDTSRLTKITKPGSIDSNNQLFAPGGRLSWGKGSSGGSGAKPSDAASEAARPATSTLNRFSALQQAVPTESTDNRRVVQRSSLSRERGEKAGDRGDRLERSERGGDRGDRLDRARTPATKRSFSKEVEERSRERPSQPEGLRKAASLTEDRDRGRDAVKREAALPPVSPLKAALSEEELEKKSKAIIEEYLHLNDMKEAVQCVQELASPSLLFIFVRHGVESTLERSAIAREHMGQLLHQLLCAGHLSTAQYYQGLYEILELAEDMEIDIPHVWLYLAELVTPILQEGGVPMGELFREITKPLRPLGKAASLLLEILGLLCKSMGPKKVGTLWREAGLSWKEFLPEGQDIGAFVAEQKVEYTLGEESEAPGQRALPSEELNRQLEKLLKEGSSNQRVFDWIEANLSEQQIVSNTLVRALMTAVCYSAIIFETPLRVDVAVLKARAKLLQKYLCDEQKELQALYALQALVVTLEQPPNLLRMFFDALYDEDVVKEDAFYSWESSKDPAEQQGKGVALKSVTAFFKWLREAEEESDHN
Sequence of endogenous eIF4E (P06730 2-217 limits assumed): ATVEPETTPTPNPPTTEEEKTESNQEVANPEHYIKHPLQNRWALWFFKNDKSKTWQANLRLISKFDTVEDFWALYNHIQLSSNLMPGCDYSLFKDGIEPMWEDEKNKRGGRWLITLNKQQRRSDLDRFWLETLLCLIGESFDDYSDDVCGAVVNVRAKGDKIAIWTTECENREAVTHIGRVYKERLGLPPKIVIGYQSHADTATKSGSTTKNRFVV

B1: 3xFLAG-MCP (other)
chain: MDYKDHDGDYKDHDIDYKDDDDKASNFTQFVLVDNGGTGDVTVAPSNFANGVAEWISSNSRSQAYKVTCSVRQSSAQKRKYTIKVEVPKVATQTVGGVELPVAAWRSYLNMELTIPIFATNSDCELIVKAMQGLLKDGNPIPSAIAANSGIY
notes: also called 3×FLAG-tagged MCP; pSL1084
As to B1, the binding result with endogenous eIF4E and with endogenous eIF4G was “no binding” throughout.

B2: 3xHA-CCmut3-NSP3 (designed binder)
chain: MVDPVGFAEAWKAQFPDSEPPRMELRSVGDIEQELERAEARIRRNEQRVNQERFRMIYLETLLAKEKKSYDRASGSGGGGDVASMLKMESTQQMASSIINTSFEAAVVAATSTLELMGIQYDYNEVYTRVKSKFDYVMDDSGVKNNLLGKAATIDQALNGKFGSAARNRNWMADTRTTARLDEDVNKLRMMLSSKGIDQKMRVLNACFNVKRVPGKSSSIIKCTRLMRDKIERGEVEVDDSFVEEKMEVDTIDWKSRYEQLEKRFESLKQRVNEKYTSWVQKAKKVNENMYSLQNVISQQQSQIADLQNYCNKLEVDLQNKISSLVSSVEWYLKSMELPDEIKTDIEQQLNSIDVINPINAIDDFESLIRNIILDYDRIFLMFKGLMRQCNYEYTYEYPYDVPDYAYPYDVPDYAYPYDVPDYA
notes: also called 3×HA-tagged CCmut3-NSP3; pSL1102
For the molecule B2, the binding result in the test with BCR-ABL was “binds”.

B3: 3xFLAG-MCP-ABI(iDab) (VHH)
chain: MDYKDHDGDYKDHDIDYKDDDDKASNFTQFVLVDNGGTGDVTVAPSNFANGVAEWISSNSRSQAYKVTCSVRQSSAQKRKYTIKVEVPKVATQTVGGVELPVAAWRSYLNMELTIPIFATNSDCELIVKAMQGLLKDGNPIPSAIAANSGIYASGSGGGGDVGSEVQLLESGGGLVQPGGSLRLSCAASGFTFSTFSMNWVRQAPGKGLEWVSYISKCGHVIYYADSVKGRFTISRDNSKNTLYLQMNSLRAEDTAVYYCARGPLWSFVRMSFDYWGQGTLVTVSSAS
notes: also called 3×FLAG-tagged MCP-ABI (iDab)3; 3xFLAG-MCP-(ABI(iDab))3
For B3, the binding result with BCR-ABL is on record as “binds”.

B4: 3xFLAG-MCP-NSP3 (other)
chain: MDYKDHDGDYKDHDIDYKDDDDKASNFTQFVLVDNGGTGDVTVAPSNFANGVAEWISSNSRSQAYKVTCSVRQSSAQKRKYTIKVEVPKVATQTVGGVELPVAAWRSYLNMELTIPIFATNSDCELIVKAMQGLLKDGNPIPSAIAANSGIYASGSGGGGDVMLKMESTQQMASSIINTSFEAAVVAATSTLELMGIQYDYNEVYTRVKSKFDYVMDDSGVKNNLLGKAATIDQALNGKFGSAARNRNWMADTRTTARLDEDVNKLRMMLSSKGIDQKMRVLNACFNVKRVPGKSSSIIKCTRLMRDKIERGEVEVDDSFVEEKMEVDTIDWKSRYEQLEKRFESLKQRVNEKYTSWVQKAKKVNENMYSLQNVISQQQSQIADLQNYCNKLEVDLQNKISSLVSSVEWYLKSMELPDEIKTDIEQQLNSIDVINPINAIDDFESLIRNIILDYDRIFLMFKGLMRQCNYEYTYE
notes: also called 3×FLAG-tagged MCP-NSP3; pSL1083
For the molecule B4, the binding result in the test with endogenous eIF4G is reported as “binds”.

Source of the values: US20260209789A1 (WESTLAKE UNIVERSITY, published 2026).
